B1: FUT8 (parent)
chain: NWRYATGGWETVFRPVSETCTDRS
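Also: lentivirally expressed fusions sorted by FACS into six bins by GFP to DsRed ratio, PSI derived from sequencing read proportions per bin multiplied by bin number.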

Variants of: B1
Assay: protein stability index of a GFP-peptide fusion (GPS, HEK-293T) (PSI 1-6); higher = more stable
Settings: c terminus: a fixed tail appended
With T11W the protein stability index was 1.98. Work on T11L yielded a protein stability index of 2.12. Variant T11E has a protein stability index of 2.86. T11P showed a protein stability index of 2. Work on T11G yielded a protein stability index of 1.97. Variant T11D has a protein stability index of 2.2. With T11V the protein stability index was 2.12. Work on T11K yielded a protein stability index of 1.68. Variant T11R has a protein stability index of 3.69. Variant T11N has a protein stability index of 1.9. T11C showed a protein stability index of 1.78. T11Y showed a protein stability index of 4.5. In the case of T11F, the protein stability index is reported as 1.48. In the case of T11I, the protein stability index is reported as 3.25. In the case of T11H, the protein stability index is reported as 1.69. Work on T11Q yielded a protein stability index of 2.15. Work on R14P yielded a protein stability index of 2.69. R14S gave a protein stability index of 1.01. In the case of R14H, the protein stability index is reported as 1.12. For R14M, the protein stability index was 1.7. Work on R14W yielded a protein stability index of 1.6. For R14T, the protein stability index was 3.45. R14D gave a protein stability index of 2.4. For R14V, the protein stability index was 1.55. R14F gave a protein stability index of 1.29. Work on R14N yielded a protein stability index of 3.41. R14K showed a protein stability index of 1.7. R14Y gave a protein stability index of 2.1. For R14I, the protein stability index was 2.66. For R14C, the protein stability index was 3.72. R14E gave a protein stability index of 1.83. R14G showed a protein stability index of 1.57. Work on R14Q yielded a protein stability index of 1.77. With G8D the protein stability index was 2.9. In the case of G8P, the protein stability index is reported as 1.74. Variant G8R has a protein stability index of 1.41. G8I showed a protein stability index of 1.48. For G8Q, the protein stability index was 1.98. For G8T, the protein stability index was 2.47. Work on G8C yielded a protein stability index of 1.55. G8N gave a protein stability index of 2.26. Variant G8K has a protein stability index of 3.73. In the case of G8L, the protein stability index is reported as 1.82. With G8A the protein stability index was 1.84. With G8Y the protein stability index was 1.89. For G8E, the protein stability index was 2.22. With G8M the protein stability index was 2.01. Work on G8F yielded a protein stability index of 1.53. G8H showed a protein stability index of 2.43. Work on G8W yielded a protein stability index of 2.51. With G8S the protein stability index was 2.4. For T6P, the protein stability index was 2.44. Work on T6S yielded a protein stability index of 1. In the case of T6I, the protein stability index is reported as 2.63. For T6Y, the protein stability index was 1.96. In the case of T6E, the protein stability index is reported as 2.25. For T6V, the protein stability index was 2.11. With T6Q the protein stability index was 1.6. For T6L, the protein stability index was 1.73. With T6H the protein stability index was 1.28. Work on T6K yielded a protein stability index of 1.1. T6M showed a protein stability index of 1.74. Work on T6N yielded a protein stability index of 1.48. T6W gave a protein stability index of 1.65. T6D gave a protein stability index of 2.72. T6R showed a protein stability index of 1.51. E10S gave a protein stability index of 1.86. Variant E10F has a protein stability index of 3.97. With E10D the protein stability index was 1.8. For E10P, the protein stability index was 1.18. With E10M the protein stability index was 1.73. Variant E10Q has a protein stability index of 1.2. E10Y showed a protein stability index of 2.52. For E10T, the protein stability index was 1.63. For E10R, the protein stability index was 2.49. E10K showed a protein stability index of 3.86. For E10I, the protein stability index was 3.19. In the case of E10H, the protein stability index is reported as 2.21. E10N showed a protein stability index of 1.86. E10V gave a protein stability index of 1.02. For V12M, the protein stability index was 2.48. In the case of V12Q, the protein stability index is reported as 2.56. For V12P, the protein stability index was 2.85. For V12H, the protein stability index was 2.23. With V12Y the protein stability index was 2.73. Work on V12T yielded a protein stability index of 1.69. With V12G the protein stability index was 1.09. For V12F, the protein stability index was 1.45. V12N gave a protein stability index of 1.97. For V12C, the protein stability index was 2. With V12I the protein stability index was 2.57. Variant V12S has a protein stability index of 1.97. V12R showed a protein stability index of 2.08. For V12W, the protein stability index was 1.26. Work on V12K yielded a protein stability index of 3.27. For V12E, the protein stability index was 2.23. With V12A the protein stability index was 2.46. For G7A, the protein stability index was 2.94. For G7L, the protein stability index was 1.89. G7M gave a protein stability index of 1.81. Variant G7T has a protein stability index of 2.12. For G7W, the protein stability index was 1.59. For G7Y, the protein stability index was 2.12. With G7P the protein stability index was 2.19. G7I showed a protein stability index of 2.11. For G7K, the protein stability index was 2.39. G7E gave a protein stability index of 3.17. G7S gave a protein stability index of 1.97. Work on G7Q yielded a protein stability index of 2.49. Work on G7F yielded a protein stability index of 2.64. Work on G7H yielded a protein stability index of 2.22. G7R showed a protein stability index of 1.75. Variant G7N has a protein stability index of 2.13. G7C showed a protein stability index of 2.08. Work on P15R yielded a protein stability index of 1.68. With P15K the protein stability index was 2.03. Work on P15I yielded a protein stability index of 2.35. P15Q showed a protein stability index of 2.43. For P15G, the protein stability index was 2.05. For P15T, the protein stability index was 1.82. With P15W the protein stability index was 1.98. Work on P15S yielded a protein stability index of 3.98. Variant P15Y has a protein stability index of 1.27. P15N showed a protein stability index of 1.95. With P15D the protein stability index was 3.23. P15L showed a protein stability index of 2.1. Variant V16E has a protein stability index of 1.59. V16G gave a protein stability index of 3.55. V16F gave a protein stability index of 1.23. With V16A the protein stability index was 1.66. Variant V16C has a protein stability index of 1.06. V16D showed a protein stability index of 1.81. For V16H, the protein stability index was 2.56. Variant F13A has a protein stability index of 3.91. With F13W the protein stability index was 3.09. With F13D the protein stability index was 3.66. With F13K the protein stability index was 3. F13R showed a protein stability index of 2.69. With F13I the protein stability index was 1.66. Work on F13Y yielded a protein stability index of 1.55. Variant F13Q has a protein stability index of 2.52. Work on F13V yielded a protein stability index of 1.64. In the case of F13T, the protein stability index is reported as 2.28. F13M gave a protein stability index of 2.28. In the case of F13L, the protein stability index is reported as 2.28. F13H showed a protein stability index of 2.99. Variant F13E has a protein stability index of 3.2. Work on F13C yielded a protein stability index of 2.15. F13N gave a protein stability index of 2.78. In the case of F13P, the protein stability index is reported as 3.54. Work on W9N yielded a protein stability index of 2.27. For W9T, the protein stability index was 1.55. Work on W9V yielded a protein stability index of 2.31. With W9M the protein stability index was 1.72. For W9E, the protein stability index was 2.79. W9D gave a protein stability index of 2.33. W9Q showed a protein stability index of 2.03. Variant W9I has a protein stability index of 2.22. In the case of W9S, the protein stability index is reported as 2.03. With W9L the protein stability index was 2.29. Variant W9G has a protein stability index of 1.96. W9K showed a protein stability index of 2.06. W9F gave a protein stability index of 1.41. Work on W9P yielded a protein stability index of 2.95. In the case of W9R, the protein stability index is reported as 1.88. For W9H, the protein stability index was 2.73. W9Y showed a protein stability index of 2.32.

Reference: the supplement of paper PMC10567573
